In the supplement of paper PMC5998384:

Assays:
[1] = tested on: HeLa Kyoto; test: thermal stability score vs G1/S (z-score of summed log2 fold changes over temperatures); higher = more thermally stable than in G1/S
[2] = tested on: HeLa Kyoto; test: solubility in G1/S (NP-40 vs SDS abundance) (log2 ratio); higher = more soluble; settings: cell cycle stage: G1/S
[3] = tested on: HeLa Kyoto; test: solubility change mitosis vs G1/S (difference of NP-40 vs SDS log2 ratios) (log2 ratio difference); higher = more soluble in mitosis
[4] = tested on: HeLa Kyoto; test: melting temperature (median over replicates), in situ; higher = more thermally stable
[5] = cell cycle stage: early G1 (4.5 h after nocodazole release)
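For melting temperature (median over replicates), in situ in this document: HeLa Kyoto cells synchronized by double thymidine or nocodazole block, proteins quantified by TMT10plex mass spectrometry, three independent biological replicates.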
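For solubility change mitosis vs G1/S (difference of NP-40 vs SDS log2 ratios) in this document: synchronized HeLa Kyoto cells (double thymidine block for G1/S, nocodazole release for mitosis), protein amounts in NP-40 versus SDS lysates quantified by mass spectrometry, three biological replicates.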
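For solubility in G1/S (NP-40 vs SDS abundance) in this document: HeLa Kyoto cells arrested at G1/S by double thymidine block, proteins quantified by TMT10plex mass spectrometry in mild NP-40 versus SDS extracts, three biological replicates.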
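For thermal stability score vs G1/S (z-score of summed log2 fold changes over temperatures) in this document: synchronized HeLa Kyoto cells, proteins quantified by TMT10plex mass spectrometry, three biological replicates, mitosis taken 0.5 h after nocodazole release, G1/S directly after double thymidine block.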

| Sequence | thermal stability score [1, 5] | thermal stability score ([1]; cell cycle stage: mitosis) | solubility in G1/S (log2) [2] | solubility change mitosis (log2) [3] | melting temperature ([4]; cell cycle stage: G1/S) | melting temperature ([4]; cell cycle stage: mitosis) |
| --- | --- | --- | --- | --- | --- | --- |
| MPTQRDSSTMSHTVAGGGSGDHSHQVRVKAYYRGDIMITHFEPSISFEGLCNEVRDMCSFDNEQLFTMKWIDEEGDPCTVSSQLELEEAFRLYELNKDSELLIHVFPCVPERPGMPCPGEDKSIYRRGARRWRKLYCANGHTFQAKRFNRRAHCAICTDRIWGLGRQGYKCINCKLLVHKKCHKLVTIECGRHSLPQEPVMPMDQSSMHSDHAQTVIPYNPSSHESLDQVGEEKEAMNTRESGKASSSLGLQDFDLLRVIGRGSYAKVLLVRLKKTDRIYAMKVVKKELVNDDEDIDWVQTEKHVFEQASNHPFLVGLHSCFQTESRLFFVIEYVNGGDLMFHMQRQRKLPEEHARFYSAEISLALNYLHERGIIYRDLKLDNVLLDSEGHIKLTDYGMCKEGLRPGDTTSTFCGTPNYIAPEILRGEDYGFSVDWWALGVLMFEMMAGRSPFDIVGSSDNPDQNTEDYLFQVILEKQIRIPRSLSVKAASVLKSFLNKDPKERLGCHPQTGFADIQGHPFFRNVDWDMMEQKQVVPPFKPNISGEFGLDNFDSQFTNEPVQLTPDDDDIVRKIDQSEFEGFEYINPLLMSAEECV [PRKCI] | 0.877 | 0.84 | -0.127 | -0.129 | 50.7 °C | 51 °C |
| MSWFNASQLSSFAKQALSQAQKSIDRVLDIQEEEPSIWAETIPYGEPGISSPVSGGWDTSTWGLKSNTEPQSPPIASPKAITKPVRRTVVDESENFFSAFLSPTDVQTIQKSPVVSKPPAKSQRPEEEVKSSLHESLHIGQSRTPETTESQVKDSSLCVSGETLAAGTSSPKTEGKHEETVNKESDMKVPTVSLKVSESVIDVKTTMESISNTSTQSLTAETKDIALEPKEQKHEDRQSNTPSPPVSTFSSGTSTTSDIEVLDHESVISESSASSRQETTDSKSSLHLMQTSFQLLSASACPEYNRLDDFQKLTESCCSSDAFERIDSFSVQSLDSRSVSEINSDDELSGKGYALVPIIVNSSTPKSKTVESAEGKSEEVNETLVIPTEEAEMEESGRSATPVNCEQPDILVSSTPINEGQTVLDKVAEQCEPAESQPEALSEKEDVCKTVEFLNEKLEKREAQLLSLSKEKALLEEAFDNLKDEMFRVKEESSSISSLKDEFTQRIAEAEKKVQLACKERDAAKKEIKNIKEELATRLNSSETADLLKEKDEQIRGLMEEGEKLSKQQLHNSNIIKKLRAKDKENENMVAKLNKKVKELEEELQHLKQVLDGKEEVEKQHRENIKKLNSMVERQEKDLGRLQVDMDELEEKNRSIQAALDSAYKELTDLHKANAAKDSEAQEAALSREMKAKEELSAALEKAQEEARQQQETLAIQVGDLRLALQRTEQAAARKEDYLRHEIGELQQRLQEAENRNQELSQSVSSTTRPLLRQIENLQATLGSQTSSWEKLEKNLSDRLGESQTLLAAAVERERAATEELLANKIQMSSMESQNSLLRQENSRFQAQLESEKNRLCKLEDENNRYQVELENLKDEYVRTLEETRKEKTLLNSQLEMERMKVEQERKKAIFTQETIKEKERKPFSVSSTPTMSRSSSISGVDMAGLQTSFLSQDESHDHSFGPMPISANGSNLYDAVRMGAGSSIIENLQSQLKLREGEITHLQLEIGNLEKTRSIMAEELVKLTNQNDELEEKVKEIPKLRTQLRDLDQRYNTILQMYGEKAEEAEELRLDLEDVKNMYKTQIDELLRQSLS [TMF1] | -2.48 | -0.992 | 0.0833 | -0.065 | 54.5 °C | 54.4 °C |
| MDESALLDLLECPVCLERLDASAKVLPCQHTFCKRCLLGIVGSRNELRCPECRTLVGSGVEELPSNILLVRLLDGIKQRPWKPGPGGGSGTNCTNALRSQSSTVANCSSKDLQSSQGGQQPRVQSWSPPVRGIPQLPCAKALYNYEGKEPGDLKFSKGDIIILRRQVDENWYHGEVNGIHGFFPTNFVQIIKPLPQPPPQCKALYDFEVKDKEADKDCLPFAKDDVLTVIRRVDENWAEGMLADKIGIFPISYVEFNSAAKQLIEWDKPPVPGVDAGECSSAAAQSSTAPKHSDTKKNTKKRHSFTSLTMANKSSQASQNRHSMEISPPVLISSSNPTAAARISELSGLSCSAPSQVHISTTGLIVTPPPSSPVTTGPSFTFPSDVPYQAALGTLNPPLPPPPLLAATVLASTPPGATAAAAAAGMGPRPMAGSTDQIAHLRPQTRPSVYVAIYPYTPRKEDELELRKGEMFLVFERCQDGWFKGTSMHTSKIGVFPGNYVAPVTRAVTNASQAKVPMSTAGQTSRGVTMVSPSTAGGPAQKLQGNGVAGSPSVVPAAVVSAAHIQTSPQAKVLLHMTGQMTVNQARNAVRTVAAHNQERPTAAVTPIQVQNAAGLSPASVGLSHHSLASPQPAPLMPGSATHTAAISISRASAPLACAAAAPLTSPSITSASLEAEPSGRIVTVLPGLPTSPDSASSACGNSSATKPDKDSKKEKKGLLKLLSGASTKRKPRVSPPASPTLEVELGSAELPLQGAVGPELPPGGGHGRAGSCPVDGDGPVTTAVAGAALAQDAFHRKASSLDSAVPIAPPPRQACSSLGPVLNESRPVVCERHRVVVSYPPQSEAELELKEGDIVFVHKKREDGWFKGTLQRNGKTGLFPGSFVENI [SH3RF1] | 0.34 | 1.14 | 0.517 | -0.13 | 49.3 °C | 51 °C |
| MAKTVAYFYDPDVGNFHYGAGHPMKPHRLALTHSLVLHYGLYKKMIVFKPYQASQHDMCRFHSEDYIDFLQRVSPTNMQGFTKSLNAFNVGDDCPVFPGLFEFCSRYTGASLQGATQLNNKICDIAINWAGGLHHAKKFEASGFCYVNDIVIGILELLKYHPRVLYIDIDIHHGDGVQEAFYLTDRVMTVSFHKYGNYFFPGTGDMYEVGAESGRYYCLNVPLRDGIDDQSYKHLFQPVINQVVDFYQPTCIVLQCGADSLGCDRLGCFNLSIRGHGECVEYVKSFNIPLLVLGGGGYTVRNVARCWTYETSLLVEEAISEELPYSEYFEYFAPDFTLHPDVSTRIENQNSRQYLDQIRQTIFENLKMLNHAPSVQIHDVPADLLTYDRTDEADAEERGPEENYSRPEAPNEFYDGDHDNDKESDVEI [HDAC3] | 1.43 | 1.96 | -0.055 | -0.161 | – | 52.6 °C |
| MGRTVVVLGGGISGLAASYHLSRAPCPPKVVLVESSERLGGWIRSVRGPNGAIFELGPRGIRPAGALGARTLLLVSELGLDSEVLPVRGDHPAAQNRFLYVGGALHALPTGLRGLLRPSPPFSKPLFWAGLRELTKPRGKEPDETVHSFAQRRLGPEVASLAMDSLCRGVFAGNSRELSIRSCFPSLFQAEQTHRSILLGLLLGAGRTPQPDSALIRQALAERWSQWSLRGGLEMLPQALETHLTSRGVSVLRGQPVCGLSLQAEGRWKVSLRDSSLEADHVISAIPASVLSELLPAEAAPLARALSAITAVSVAVVNLQYQGAHLPVQGFGHLVPSSEDPGVLGIVYDSVAFPEQDGSPPGLRVTVMLGGSWLQTLEASGCVLSQELFQQRAQEAAATQLGLKEMPSHCLVHLHKNCIPQYTLGHWQKLESARQFLTAHRLPLTLAGASYEGVAVNDCIESGRQAAVSVLGTEPNS [PPOX] | 0.0829 | -0.0946 | 0.0337 | -0.0988 | 53.3 °C | 54 °C |
| MNHDFQALALESRGMGELLPTKKFWEPDDSTKDGQKGIFLGDDEWRETAWGASHHSMSQPIMVQRRSGQGFHGNSEVNAILSPRSESGGLGVSMVEYVLSSSPADKLDSRFRKGNFGTRDAETDGPEKGDQKGKASPFEEDQNRDLKQGDDDDSKINGRGLPNGMDADCKDFNRTPGSRQASPTEVVERLGPNTNPSEGLGPLPNPTANKPLVEEFSNPETQNLDAMEQVGLESLQFDYPGNQVPMDSSGATVGLFDYNSQQQLFQRTNALTVQQLTAAQQQQYALAAAQQPHIAGVFSAGLAPAAFVPNPYIISAAPPGTDPYTAAGLAAAATLAGPAVVPPQYYGVPWGVYPANLFQQQAAAAANNTASQQAASQAQPGQQQVLRAGAGQRPLTPNQGQQGQQAESLAAAAAANPTLAFGQGLATGMPGYQVLAPTAYYDQTGALVVGPGARTGLGAPVRLMAPTPVLISSAAAQAAAAAAAGGTASSLTGSTNGLFRPIGTQPPQQQQQQPSTNLQSNSFYGSSSLTNSSQSSSLFSHGPGQPGSTSLGFGSGNSLGAAIGSALSGFGSSVGSSASSSATRRESLSTSSDLYKRSSSSLAPIGQPFYNSLGFSSSPSPIGMPLPSQTPGHSLTPPPSLSSHGSSSSLHLGGLTNGSGRYISAAPGAEAKYRSASSTSSLFSSSSQLFPPSRLRYNRSDIMPSGRSRLLEDFRNNRFPNLQLRDLIGHIVEFSQDQHGSRFIQQKLERATPAERQMVFNEILQAAYQLMTDVFGNYVIQKFFEFGSLDQKLALATRIRGHVLPLALQMYGCRVIQKALESISSDQQVISEMVKELDGHVLKCVKDQNGNHVVQKCIECVQPQSLQFIIDAFKGQVFVLSTHPYGCRVIQRILEHCTAEQTLPILEELHQHTEQLVQDQYGNYVIQHVLEHGRPEDKSKIVSEIRGKVLALSQHKFASNVVEKCVTHASRAERALLIDEVCCQNDGPHSALYTMMKDQYANYVVQKMIDMAEPAQRKIIMHKIRPHITTLRKYTYGKHILAKLEKYYLKNSPDLGPIGGPPNGML [PUM2] | 1.8 | 1.49 | 0.446 | -0.11 | 54 °C | 50.2 °C |
| MAVYRAALGASLAAARLLPLGRCSPSPAPRSTLSGAAMEPAPRWLAGLRFDNRALRALPVEAPPPGPEGAPSAPRPVPGACFTRVQPTPLRQPRLVALSEPALALLGLGAPPAREAEAEAALFFSGNALLPGAEPAAHCYCGHQFGQFAGQLGDGAAMYLGEVCTATGERWELQLKGAGPTPFSRQADGRKVLRSSIREFLCSEAMFHLGVPTTRAGACVTSESTVVRDVFYDGNPKYEQCTVVLRVASTFIRFGSFEIFKSADEHTGRAGPSVGRNDIRVQLLDYVISSFYPEIQAAHASDSVQRNAAFFREVTRRTARMVAEWQCVGFCHGVLNTDNMSILGLTIDYGPFGFLDRYDPDHVCNASDNTGRYAYSKQPEVCRWNLRKLAEALQPELPLELGEAILAEEFDAEFQRHYLQKMRRKLGLVQVELEEDGALVSKLLETMHLTGADFTNTFYLLSSFPVELESPGLAEFLARLMEQCASLEELRLAFRPQMDPRQLSMMLMLAQSNPQLFALMGTRAGIARELERVEQQSRLEQLSAAELQSRNQGHWADWLQAYRARLDKDLEGAGDAAAWQAEHVRVMHANNPKYVLRNYIAQNAIEAAERGDFSEVRRVLKLLETPYHCEAGAATDAEATEADGADGRQRSYSSKPPLWAAELCVTUSS [SELO] | 3 | 3.57 | -0.0646 | -0.115 | 47.8 °C | 49.1 °C |
| MVLAELYVSDREGSDATGDGTKEKPFKTGLKALMTVGKEPFPTIYVDSQKENERWNVISKSQLKNIKKMWHREQMKSESREKKEAEDSLRREKNLEEAKKITIKNDPSLPEPKCVKIGALEGYRGQRVKVFGWVHRLRRQGKNLMFLVLRDGTGYLQCVLADELCQCYNGVLLSTESSVAVYGMLNLTPKGKQAPGGHELSCDFWELIGLAPAGGADNLINEESDVDVQLNNRHMMIRGENMSKILKARSMVTRCFRDHFFDRGYYEVTPPTLVQTQVEGGATLFKLDYFGEEAFLTQSSQLYLETCLPALGDVFCIAQSYRAEQSRTRRHLAEYTHVEAECPFLTFDDLLNRLEDLVCDVVDRILKSPAGSIVHELNPNFQPPKRPFKRMNYSDAIVWLKEHDVKKEDGTFYEFGEDIPEAPERLMTDTINEPILLCRFPVEIKSFYMQRCPEDSRLTESVDVLMPNVGEIVGGSMRIFDSEEILAGYKREGIDPTPYYWYTDQRKYGTCPHGGYGLGLERFLTWILNRYHIRDVCLYPRFVQRCTP [NARS] | 3.39 | 4 | -0.0613 | -0.124 | 52.6 °C | 53.1 °C |
